Experimental data from paper PMC6294937, “Structure and architecture of immature and mature murine leukemia virus capsids” (Proceedings of the National Academy of Sciences of the …, 2018).
“And” between values parts separate entries of the source, which are not always exact repeats. Equal entries are not always repeated.

What was measured:
[1] = biological target: truncated MLV CA-CTD (residues 132–218, CA-CTDΔCAH) (murine leukemia virus (MLV)); experiment: crystal structure; X-ray, SAD with cobalt, 1.89 Å, space group P3(1)21; crystals grown at 20 °C, 37 mg/mL protein, 4% PEG 3350, 0.1 M Hepes pH 8.2, 5 mM each CoCl2, CdCl2, MgCl2, NiCl2
[2] = biological target: MLV Gag polyprotein in immature virus particles (immature CA lattice) (murine leukemia virus (MLV)); experiment: cryo-EM structure; cryo-ET and subtomogram averaging of the CA layer in purified, fixed immature MLV particles (PR D32L); 79 particles, sixfold symmetry, 6.6 Å; crystal structures fitted as rigid bodies
[3] = biological target: the molecule itself; experiment: cryo-EM structure; cryo-ET and subtomogram averaging of the CA lattice in purified, fixed mature MLV particles; 134 virions; hexamer 7.2 Å, pentamer 8.6 Å; repeated with a second preparation (8.1 Å); crystal structures fitted as rigid bodies

## truncated MLV CA-CTD (residues 132–218, CA-CTDΔCAH) (domain or fragment)
[1]
  stoichiometry N: 2

## MLV Gag polyprotein in immature virus particles (immature CA lattice) (natural protein)
[2]
  stoichiometry N: 6

B1: MLV CA (capsid) protein in mature virus particles (mature CA lattice) (natural protein)
chain: PLRAGGNGQLQYWPFSSSDLYNWKNNNPSFSEDPGKLTALIESVLITHQPTWDDCQQLLGTLLTGEEKQRVLLEARKAVRGDDGRPTQLPNEVDAAFPLERPDWDYTTQAGRNHLVHYRQLLLAGLQNAGRSPTNLAKVKGITQGPNESPSAFLERLKEAYRRYTPYDPEDPGQETNVSMSFIWQSAPDIGRKLERLEDLKNKTLGDLVREAEKIFNKRETPEEREERIRRETEEKEERRRTEDEQKEKERDRRRHREMSKLL
notes: CA (capsid) protein of murine leukemia virus, the product of cleavage of Gag by the viral protease; 263 residues (CA-CTD printed as residues 132-263); numbers count on: the CA protein; also called mature MLV CA; mature CA hexamer; source: HEK293T, transfected with the infectious clone pRR390; in purified mature virus particles, fixed with 1% paraformaldehyde
[3]
  stoichiometry N: 6 and 5
